Test results from patent US20110275569A1, “PROTEASES TARGETING AGENTS” (CONSIGLIO NAZIONALE DELLE RICERCHE, priority 2008, published 2011).

T1: carboxypeptidase Y (Saccharomyces cerevisiae, UniProt P00729)
T1 sequence (P00729 112-532): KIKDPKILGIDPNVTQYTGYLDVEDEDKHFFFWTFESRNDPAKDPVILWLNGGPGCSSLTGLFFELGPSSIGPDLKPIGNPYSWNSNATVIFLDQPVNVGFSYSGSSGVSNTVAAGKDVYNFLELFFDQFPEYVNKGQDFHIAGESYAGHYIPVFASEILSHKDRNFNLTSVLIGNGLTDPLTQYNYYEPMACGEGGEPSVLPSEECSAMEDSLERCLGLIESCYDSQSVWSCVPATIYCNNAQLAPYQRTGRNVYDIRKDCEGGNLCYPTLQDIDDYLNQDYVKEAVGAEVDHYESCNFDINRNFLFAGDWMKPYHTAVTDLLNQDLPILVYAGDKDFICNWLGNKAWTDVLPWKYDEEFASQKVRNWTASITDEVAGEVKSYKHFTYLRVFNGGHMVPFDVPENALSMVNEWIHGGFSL

B1: Sso0767: recombinant protease inhibitor protein from Sulfolobus solfataricus, PEBP family I51, monomer of 19.0 kDa, 157 amino acids (protein, listed as Sulfolobus solfataricus)
chain: MNSESIYSMRVVSSAFKNEDFIPIKYTCDGQDLSPELEWDLVTNAKSYAIIVEDPDAPGGTFIHWVIYNITTNRLPEGVPRLYKSQYGVQGVNDFGNIGYNGPCPPKTHPPHRYYFYVYAIDTILLEIKNINADKLKSLMEGHGIERGFVMGKYKRK
B2: TFS1: protein of the yeast, founder of the family I51, able to inhibit the carboxypeptidase Y (protein, UniProt P14306 1-219, looked up)
Carboxypeptidase Y inhibitor: MNQAIDFAQASIDSYKKHGILEDVIHDTSFQPSGILAVEYSSSAPVAMGNTLPTEKARSKPQFQFTFNKQMQKSVPQANAYVPQDDDLFTLVMTDPDAPSKTDHKWSEFCHLVECDLKLLNEATHETSGATEFFASEFNTKGSNTLIEYMGPAPPKGSGPHRYVFLLYKQPKGVDSSKFSKIKDRPNWGYGTPATGVGKWAKENNLQLVASNFFYAETK

Columns and labels:
trypsin = test: Protease specificity panel: trypsin; format: biochemical
Procedure: (§1) To identify the biological function of the purified inhibitor Sso0767 (SsCEI), the ability to inhibit a number of proteases was tested. The set of the proteases examined includes: the alpha-chymotrypsin, trypsin, elastase, carboxypeptidase Y, subtilisin, thrombin and two thermophilic proteases, the kumamolisin-ac and pernisine. […] The specific interaction between the inhibitor and the target proteases was also examined by incubating Sso1273 in a reaction mixture containing all the proteases investigated. In these conditions, the catalytic performance of the inhibitor was identical to that observed by assaying each protease alone.

porcine elastase = porcine elastase (Sus scrofa, UniProt P00772); test: Inhibition of porcine elastase by the S. solfataricus inhibitor; format: biochemical
porcine elastase, sequence (P00772 27-266): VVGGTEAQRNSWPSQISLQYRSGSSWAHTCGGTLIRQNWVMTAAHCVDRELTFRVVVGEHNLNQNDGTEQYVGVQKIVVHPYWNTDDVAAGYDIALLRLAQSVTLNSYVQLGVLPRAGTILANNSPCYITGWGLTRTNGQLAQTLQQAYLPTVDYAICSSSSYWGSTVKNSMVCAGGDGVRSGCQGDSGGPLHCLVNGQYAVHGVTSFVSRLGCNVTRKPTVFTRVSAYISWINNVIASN
Procedure: as §1
(§2) In Table II are reported Ki and IC50 values that are the average of 3-5 separate determinations.

subtilisin = test: Protease specificity panel: subtilisin; format: biochemical
Procedure: as §1

bovine α-chymotrypsin = bovine α-chymotrypsin (Bos taurus, UniProt P00766); test: Inhibition of bovine alpha-chymotrypsin by the S. solfataricus inhibitor; format: biochemical
Procedure: as §1
The inhibition of Sso1273 (SsCEI) versus α-chymotrypsin followed a hyperbolic pattern with increasing concentrations of the inhibitor and the IC50 value (50% inhibitory concentration) was 0.10 μM (Table II).
The reciprocals of the rate of the substrate hydrolysis for each inhibitor concentration were plotted against the reciprocals of the substrate concentrations. Ki was determined from the formula as per the competitive type of inhibition.
as §2

carboxypeptidase Y [1] = target: T1, carboxypeptidase Y; test: Protease specificity panel: carboxypeptidase Y; format: biochemical
Procedure: as §1

[2] = Stability of the purified inhibitor (heat, denaturants, digestive proteases); format: physicochemical
thrombin = test: Protease specificity panel: thrombin; format: biochemical
Procedure: as §1

carboxypeptidase Y [3] = target: T1, carboxypeptidase Y; details: read-out: inhibition constant, carboxypeptidase Y; cited from earlier work

Row | Molecule | effect on trypsin (trypsin) | inhibition activity versus elastase (in words) (porcine elastase) | effect on subtilisin (subtilisin) | inhibition activity toward α-chymotrypsin (in words) (bovine α-chymotrypsin) | type of inhibition of α-chymotrypsin (bovine α-chymotrypsin; Lineweaver-Burk reciprocal plot) | effect on carboxypeptidase Y (carboxypeptidase Y [1]) | resistance to common protein denaturants [2] | thermostability: inhibitory activity after incubation ([2]; 4 days at 90° C.) | resistance to digestive proteases ([2]; several digestive proteases) | effect on thrombin (thrombin) | Ki (carboxypeptidase Y [3]) [nM]
1 | B1 | not affected | clear activity | not affected | best target protease among those tested | competitive inhibitor | not affected | high resistance | no reduction in inhibitory activity | resistant | not affected | 
2 | B2 |  |  |  |  |  |  |  |  |  |  | 1.8
